B1: Phosphoglycerate kinase 1, wild-type, His-tagged recombinant (enzyme, UniProt P00558 1-417, looked up)
chain: MSLSNKLTLDKLDVKGKRVVMRVDFNVPMKNNQITNNQRIKAAVPSIKFCLDNGAKSVVLMSHLGRPDGVPMPDKYSLEPVAVELKSLLGKDVLFLKDCVGPEVEKACANPAAGSVILLENLRFHVEEEGKGKDASGNKVKAEPAKIEAFRASLSKLGDVYVNDAFGTAHRAHSSMVGVNLPQKAGGFLMKKELNYFAKALESPERPFLAILGGAKVADKIQLINNMLDKVNEMIIGGGMAFTFLKVLNNMEIGTSLFDEEGAKIVKDLMSKAEKNGVKITLPVDFVTADKFDENAKTGQATVASGIPAGWMGLDCGPESSKKYAEAVTRAKQIVWNGPVGVFEWEAFARGTKALMDEVVKATSRGCITIIGGGDTATCCAKWNTEDKVSHVSTGGGASLELLEGKVLPGVDALSNI
notes: Phosphoglycerate kinase 1 (PGK1), wild-type, cloned into the BamHI and XhoI sites of pET32a; also called PGK1; His-tagged PGK1

Assays:
Hrs = Hrs (UniProt O14964); experiment: co-immunoprecipitation from cell lysate; settings: reference: wild type; sites S203
[1] = target: T1, GST fused to the cytoplasmic domain of the epidermal growth factor receptor (UniProt P00533 669-1210); experiment: pull-down; GST-fusion proteins on glutathione beads incubated with soluble proteins (100 nM), 4 °C, 1 h, PBS with 0.05% Triton X-100 and protease inhibitors; two washes; SDS-PAGE with Coomassie staining or western blot; settings: both partners purified
T1 construct: Epidermal growth factor receptor (EGFR), cytoplasmic domain appended to the carboxy terminus of GST in pGEX-4T-1; also called GST-EGFR cytoplasmic domain; source: E. coli BL21, purified on glutathione-Sepharose 4B beads; not shown: GST, N-terminal, kept

[2] = target: B1; experiment: pull-down; competition with purified components: increasing level of an EGFR peptide (dileucine signal or mutated) added to the pull-down of PGK1 by GST-EGFR; settings: both partners purified

In the case of PGK1 (from UniProt P00558) S203A, the “binding against the reference” value (Hrs) is reported as “weaker”.

B1: binds [1].

B2: EGFR peptide, wild-type (contains the dileucine sorting signal) (peptide)
peptide: PNQALLRILKETE
notes: Stretch of the juxta-membrane region of the epidermal growth factor receptor (EGFR) with the dileucine sorting signal; also called peptide that contains the relevant dileucine motif; source: synthetic peptide (core facility)
B2: binds [2].

Source: PMC10838266 (Nature Communications, 2024)
